Assay [1] concerns the target D3H44 light chain Q124E_V133W_T180E, N-terminal HA or FLAG tag. The assay can be described thus: LCCA, SPR of light chain tags, L1:L2 DNA 1:3 norm. to 1:1; other light chain m14.
Assay [2] concerns the target D3H44 light chain Q124R_T178R, N-terminal HA or FLAG tag. Kind of assay: LCCA, SPR of light chain tags, L1:L2 DNA 1:3 norm. to 1:1; other light chain m25.
For assay [3], the target named is D3H44 light chain Q124E_T178E with N-terminal HA or FLAG tag. The assay can be described thus: LCCA (SPR tag readout), L1:L2 DNA 1:3, normalized to 1:1; competing light chain m9.
Assay [4] deals with D3H44 light chain Q124E_T178E_T180E with N-terminal HA or FLAG tag. The description is as above.
In assay [5] the target is D3H44 light chain Q124E_T180E with N-terminal HA or FLAG tag. The description is as above.
Assay [6] deals with D3H44 light chain Q124E_T178E with N-terminal HA or FLAG tag. The assay can be described thus: LCCA (SPR tag readout), L1:L2 DNA 1:9, normalized to 1:1; competing light chain m9.
The target of assay [7] is D3H44 light chain Q124E_T178E_T180E with N-terminal HA or FLAG tag. Described as above.
Assay [8] concerns the target D3H44 light chain Q124R_T178R with N-terminal HA or FLAG tag. Kind of assay: LCCA (SPR tag readout), L1:L2 DNA 1:3, normalized to 1:1; competing light chain m10.
Assay [9] has the same target. The assay can be described thus: LCCA (SPR tag readout), L1:L2 DNA 1:3, normalized to 1:1; competing light chain m11.
Assay [10] has as its target D3H44 light chain Q124E_T180E with N-terminal HA or FLAG tag. Kind of assay: LCCA (SPR tag readout), L1:L2 DNA 1:3, normalized to 1:1; competing light chain m12.
Assay [11] deals with D3H44 light chain Q124K_T178R with N-terminal HA or FLAG tag. The assay can be described thus: LCCA (SPR tag readout), L1:L2 DNA 1:3, normalized to 1:1; competing light chain m13.
The target of assay [12] is D3H44 light chain Q124R_Q160K_T178R with N-terminal HA or FLAG tag. The assay is described as above.
Assay [13] concerns the target D3H44 light chain Q124R_T178R with N-terminal HA or FLAG tag. Described as above.
Assay [14] deals with D3H44 light chain T178R with N-terminal HA or FLAG tag. The description is as above.
Assay [15] deals with D3H44 light chain Q124E_T180E with N-terminal HA or FLAG tag. The assay can be described thus: LCCA (SPR tag readout), L1:L2 DNA 1:3, normalized to 1:1; competing light chain m14.
Assay [16] has the same target. Kind of assay: LCCA (SPR tag readout), L1:L2 DNA 1:3, normalized to 1:1; competing light chain m19.
Assay [17] has as its target D3H44 light chain Q124R_T178R with N-terminal HA or FLAG tag. Kind of assay: LCCA (SPR tag readout), L1:L2 DNA 1:9, normalized to 1:1; competing light chain m10.
The target is the same in assay [18]. Kind of assay: LCCA (SPR tag readout), L1:L2 DNA 1:9, normalized to 1:1; competing light chain m11.
The target in assay [19] is D3H44 light chain Q124E_S176L_T180E, N-terminal HA or FLAG tag. The assay can be described thus: LCCA, SPR of light chain tags, L1:L2 DNA 1:3 norm. to 1:1; other light chain m14.
Assay [20] addresses D3H44 light chain Q124R_T178R, N-terminal HA or FLAG tag. The assay can be described thus: LCCA, SPR of light chain tags, L1:L2 DNA 1:3 norm. to 1:1; other light chain m16.
Assay [21] has as its target D3H44 light chain Q124E_T178E_T180E, N-terminal HA or FLAG tag. The assay can be described thus: LCCA, SPR of light chain tags, L1:L2 DNA 1:3 norm. to 1:1; other light chain m17.
The target in assay [22] is D3H44 light chain Q124R_Q160K_T178R, N-terminal HA or FLAG tag. Kind of assay: LCCA, SPR of light chain tags, L1:L2 DNA 1:3 norm. to 1:1; other light chain m21.
Assay [23] deals with D3H44 light chain Q124E_T178E_T180E, N-terminal HA or FLAG tag. The assay can be described thus: LCCA, SPR of light chain tags, L1:L2 DNA 1:9 norm. to 1:1; other light chain m17.
Assay [24] deals with D3H44 light chain Q124R_Q160K_T178R, N-terminal HA or FLAG tag. Kind of assay: LCCA, SPR of light chain tags, L1:L2 DNA 1:9 norm. to 1:1; other light chain m21.
In assay [25] the target is D3H44 light chain Q124E_T180E, N-terminal HA or FLAG tag. Kind of assay: LCCA, L1:L2 DNA 1:3, SPR of light chain tags; competing light chain m10.
Assay [26] has as its target D3H44 light chain Q124R_T178K, N-terminal HA or FLAG tag. Kind of assay: LCCA, L1:L2 DNA 1:3, SPR of light chain tags; competing light chain m11.
The target of assay [27] is D3H44 light chain Q124R_T178R, N-terminal HA or FLAG tag. Described as above.
The target in assay [28] is D3H44 light chain Q124E_Q160E_T180E, N-terminal HA or FLAG tag. The assay can be described thus: LCCA, L1:L2 DNA 1:3, SPR of light chain tags; competing light chain m12.
In assay [29] the target is D3H44 light chain Q124R_Q160K_T178R, N-terminal HA or FLAG tag. Kind of assay: LCCA, L1:L2 DNA 1:3, SPR of light chain tags; competing light chain m13.
Assay [30] has as its target D3H44 light chain T178R, N-terminal HA or FLAG tag. The assay is described as above.
The target in assay [31] is D3H44 light chain Q124E_T180E, N-terminal HA or FLAG tag. Kind of assay: LCCA, L1:L2 DNA 1:3, SPR of light chain tags; competing light chain m14.
Assay [32] addresses D3H44 light chain Q124E_Q160E_T180E, N-terminal HA or FLAG tag. Kind of assay: LCCA, L1:L2 DNA 1:3, SPR of light chain tags; competing light chain m16.
Assay [33] concerns the target D3H44 light chain Q124R_T178K, N-terminal HA or FLAG tag. Kind of assay: LCCA, L1:L2 DNA 1:9, SPR of light chain tags; competing light chain m11.
Assay [34] has as its target D3H44 light chain Q124R_T178R, N-terminal HA or FLAG tag. The assay is described as above.
Assay [35] has as its target D3H44 light chain Q124E_Q160E_T180E, N-terminal HA or FLAG tag. The assay can be described thus: LCCA, L1:L2 DNA 1:9, SPR of light chain tags; competing light chain m12.
Assay [36] shares this target. Kind of assay: LCCA, L1:L2 DNA 1:9, SPR of light chain tags; competing light chain m16.
The target of assay [37] is tissue factor (TF) antigen (UniProt P13726). Kind of assay: SPR, Fab captured on anti-penta-His surface, TF as analyte, 1:1 fit; Fab batch C. A general note: In SPR one partner is held on a chip, and binding of the other changes the refractive index at the surface.
The target is the same in assay [38]. Kind of assay: SPR, Fab captured on anti-penta-His surface, TF as analyte, 1:1 fit; Fab batch C; against wild-type D3H44 Fab.
Assay [39] has the same target. Kind of assay: SPR, Fab captured on anti-penta-His surface, TF as analyte, 1:1 fit; estimated value, from a Fab that differs only in the L chain tag.
The target is the same in assay [40]. The assay can be described thus: SPR, Fab captured on anti-penta-His surface, TF as analyte, 1:1 fit; estimated value, from a Fab that differs only in the L chain tag; against wild-type D3H44 Fab.
The target is the same in assay [41]. Kind of assay: SPR, Fab captured on anti-penta-His, TF as analyte, 1:1 fit; batch C (+).
The target is the same in assay [42]. The assay can be described thus: vs wild-type D3H44 Fab (KD 0.157 nM); SPR, Fab captured on anti-penta-His, TF as analyte; batch C (+).

The source of these data is patent publication US11306156.

Consider “D3H44 Fab heavy chain L124A_Q179K, ABD2-His6 tagged”, for which, in assay [1], the H1L1:H1L2 normalized median ratio was 95% and the H1L1:H1L2 normalized median scalar value ln(r1/f1) is 2.9. For the same substance, the H1L1:H1L2 normalized median ratio in [2] was determined as 5%.

Regarding “D3H44 Fab heavy chain L124A_S186K, ABD2-His6 tagged”, in assay [1], the H1L1:H1L2 normalized median ratio came out at 95% and the H1L1:H1L2 normalized median scalar value ln(r1/f1) amounted to 2.98. Further, in assay [2], the H1L1:H1L2 normalized median ratio was 5%.

Turning to “D3H44 Fab heavy chain S186R with C-terminal ABD2-His6 tag”, the H2L2:H2L1 normalized median ratio stood at 96% in [3]; 93% in assay [4]; 96% in assay [5]; 82% in [6]; 82% in assay [7]; 7% in assay [8]. Further, the H2L2:H2L1 normalized median ratio in [9] came out at 4%; in assay [10], 97%; in [11] it was 3%; in assay [12], 2%; in assay [13], 4%; in assay [14], 4%. For the same substance, the H2L2:H2L1 normalized median ratio turned out to be 98% in assay [15], 96% in assay [16], 18% in assay [17] and 18% in assay [18].

As for “D3H44 Fab heavy chain S186R, ABD2-His6 tagged”, the H2L2:H2L1 normalized median ratio in assay [19] is 93%; in assay [20], 7%; in assay [21], 94%; in assay [22] it was 6%; in assay [23] it was 87%; in assay [24], 13%.

With “D3H44 Fab heavy chain S186R, C-terminal ABD2-His6 tag”, the H2L2:H2L1 normalized median ratio in [25] was 96 share of 100; in assay [26] it was 17 share of 100; in assay [27], 19 share of 100; in [28], 81 share of 100; in assay [29], 2 share of 100; in assay [30], 4 share of 100. For the same substance, the H2L2:H2L1 normalized median ratio in assay [31] is 98 share of 100; in [32] it was 83 share of 100; in assay [33] it was 11 share of 100; in assay [34], 14 share of 100; in assay [35], 86 share of 100; in assay [36], 89 share of 100.

For “D3H44 H1L1 Fab heterodimer of LCCA Set # 9626 (H1 L143E_K145T_Q179D; L1 Q124R_T178K)”, the Kd in assay [37] and in [39] was 0.12 nM in each case. Further, the change in median KD compared to wild type, -(log(KD design)-log(KD wt)) in [38] and in [40] was 0.12 each time.

Regarding “D3H44 H1L1 Fab heterodimer of LCCA Set # 9657 (H1 L143E_K145T_Q179E; L1 Q124R_T178K)”, the Kd in assay [37] and in assay [39] was 0.19 nM throughout. For the same substance, the change in median KD compared to wild type, -(log(KD design)-log(KD wt)) in assay [38] and in assay [40] was -0.08 throughout.

For “D3H44 H1L1 Fab heterodimer of LCCA Set # 9707 (H1 L143E_K145T_S188L; L1 Q124R_Q160K_T178R)”, the Kd (commonly the equilibrium constant for the complex coming apart) in [39] is 0.24 nM. For the same substance, the change in median KD compared to wild type, -(log(KD design)-log(KD wt)) in assay [40] was -0.19.

In turn, “H1L1 Fab heterodimer of LCCA set 9620 (D3H44 Fab, H1 L143E_K145T_Q179D, L1 Q124R_Q160K_T178R)” showed a Kd in assay [41] of 0.06 nM. This substance displayed a change in median KD compared to wild type, -(log(KD design)-log(KD wt)) in [42] of 0.39.

In assay [41], “H1L1 Fab heterodimer of LCCA set 9654 (D3H44 Fab, H1 L143E_K145T_Q179E, L1 Q124R_Q160K_T178R)” yielded a Kd of 0.15 nM. In [42], this substance showed a change in median KD compared to wild type, -(log(KD design)-log(KD wt)) of 0.02.

For the substance “H1L1 Fab heterodimer of LCCA sets 9801 and 9802 (D3H44 Fab, H1 Q179R, L1 Q124E_Q160E_T178E)”, in assay [41], the Kd was 0.11 nM. For the same substance, the change in median KD compared to wild type, -(log(KD design)-log(KD wt)) in assay [42] turned out to be 0.16.
